US20190142724A1 (CREDENTIS, published 2019)
No end group written: not given here.

Target: the molecule itself
Experiment: rheology (elastic modulus G'), P11-4 at 15 mg/ml in different buffers, 37 C; homotypic self-assembly
Method: P11-4 was prepared at 15 mg/ml with different buffer compositions (see below) measured at 0.1% strain, 37° C. and a frequency of 1 rad/second. Self-assembly of peptide monomers to polymers takes more than 5 min independent of the used ionic strength at neutral pH.

QQRFEWEFEQQ (not fully specified; printed as Gln-Gln-Arg-Phe-Glu-Trp-Glu-Phe-Glu-Gln-Gln) [self-assembling peptide P11-4]
binding result: binds
